Among the data in US20220332804A1 (CSL INNOVATION, published 2022) are Kd values, retold here.

Substitutions are numbered along the chain they refer to.

What all share (experiment): SPR, antibody captured, C2 as analyte;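 further: biacore SPR at 37 °C, anti-C2 mAbs captured via goat anti-human IgG on CM5 chips, double-referenced sensorgrams fit to a 1:1 kinetic or steady-state model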
For orientation: SPR reads the build-up and loss of mass on a sensor chip optically.

One assay addresses T1, human C2 D419A (human, UniProt P06681 21-752).
T1 sequence: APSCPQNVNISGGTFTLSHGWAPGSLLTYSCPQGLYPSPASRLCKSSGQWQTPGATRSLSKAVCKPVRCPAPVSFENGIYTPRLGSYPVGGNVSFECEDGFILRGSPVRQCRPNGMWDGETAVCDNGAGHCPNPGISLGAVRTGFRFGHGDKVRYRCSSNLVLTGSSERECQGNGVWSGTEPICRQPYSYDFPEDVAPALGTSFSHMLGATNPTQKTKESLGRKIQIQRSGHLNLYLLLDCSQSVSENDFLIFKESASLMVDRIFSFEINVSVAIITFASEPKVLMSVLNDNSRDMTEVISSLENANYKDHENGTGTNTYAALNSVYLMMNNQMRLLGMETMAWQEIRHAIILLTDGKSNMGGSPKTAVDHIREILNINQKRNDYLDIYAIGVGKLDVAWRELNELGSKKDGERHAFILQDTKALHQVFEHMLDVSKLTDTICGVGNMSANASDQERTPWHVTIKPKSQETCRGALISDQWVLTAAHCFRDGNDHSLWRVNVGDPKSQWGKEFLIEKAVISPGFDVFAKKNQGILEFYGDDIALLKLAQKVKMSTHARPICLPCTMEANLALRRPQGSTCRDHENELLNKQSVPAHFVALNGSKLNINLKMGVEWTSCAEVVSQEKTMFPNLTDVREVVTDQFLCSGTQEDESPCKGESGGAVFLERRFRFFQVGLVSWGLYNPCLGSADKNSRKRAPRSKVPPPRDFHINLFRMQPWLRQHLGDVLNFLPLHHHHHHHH

The next assay addresses T2, human C2 Q447A (human, UniProt P06681 21-752).
T2 sequence: T1 sequence with A399D, Q427A

A further assay deals with T3, human C2 N467A (human, UniProt P06681 21-752).
T3 sequence: T1 sequence with A399D, N447A

In another assay the target is T4, human C2 S469A (human, UniProt P06681 21-752).
T4 sequence: T1 sequence with A399D, S449A

B1: RF16-226 (antibody, human IgG4 S228P, lambda)
heavy: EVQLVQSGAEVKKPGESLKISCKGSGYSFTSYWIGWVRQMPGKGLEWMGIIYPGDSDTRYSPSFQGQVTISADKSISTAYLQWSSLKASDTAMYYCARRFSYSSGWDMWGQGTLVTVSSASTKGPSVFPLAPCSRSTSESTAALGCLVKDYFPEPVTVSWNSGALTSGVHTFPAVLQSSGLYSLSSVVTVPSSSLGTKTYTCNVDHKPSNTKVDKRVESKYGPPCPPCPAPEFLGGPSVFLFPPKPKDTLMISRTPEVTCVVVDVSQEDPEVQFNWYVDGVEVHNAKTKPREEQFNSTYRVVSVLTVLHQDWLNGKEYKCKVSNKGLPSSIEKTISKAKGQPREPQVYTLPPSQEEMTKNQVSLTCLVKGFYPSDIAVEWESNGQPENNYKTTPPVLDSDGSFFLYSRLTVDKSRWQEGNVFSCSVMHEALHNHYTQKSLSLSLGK
light: SYELTQPPSVSVSPGQTARITCSGDALTSKYVAWYQQKSGLAPLLVIYEDTRRPSGIPAKFSGSSSGSVATLTISGAHGDDEADYYCYSTDASGHQRVFGGGTKLTVLSQPKAAPSVTLFPPSSEELQANKATLVCLISDFYPGAVTVAWKADGSPVKAGVETTKPSKQSNNKYAASSYLSLTPEQWKSHRSYSCQVTHEGSTVEKTVAPTECS
notes: pH-dependent anti-C2 antibody from a phage display library; also called WT
Take B1: the dissociation constant Kd with human C2 D419A was determined as 17.6 nM; with human C2 Q447A it was 5.4 nM; in the assay with human C2 N467A it was 19.7 nM; with human C2 S469A, 28.2 nM.

In general, Kd refers to the free concentration of one partner at which half of the binding sites on the other are occupied at equilibrium, for simple one-to-one binding.
